Experimental data published in US20200102387A1 (CELGENE, published 2020).

Experiments:
[1] = biological target: T1, rat SIRPα on CHO-K1 cells (rat, UniProt P97710 32-509); test: flow cytometry on Rat SIRPα-CHO-K1 cells
T1 construct: whole, on cells; also called rat SIRPα-CHO-K1
T1 sequence (looked up): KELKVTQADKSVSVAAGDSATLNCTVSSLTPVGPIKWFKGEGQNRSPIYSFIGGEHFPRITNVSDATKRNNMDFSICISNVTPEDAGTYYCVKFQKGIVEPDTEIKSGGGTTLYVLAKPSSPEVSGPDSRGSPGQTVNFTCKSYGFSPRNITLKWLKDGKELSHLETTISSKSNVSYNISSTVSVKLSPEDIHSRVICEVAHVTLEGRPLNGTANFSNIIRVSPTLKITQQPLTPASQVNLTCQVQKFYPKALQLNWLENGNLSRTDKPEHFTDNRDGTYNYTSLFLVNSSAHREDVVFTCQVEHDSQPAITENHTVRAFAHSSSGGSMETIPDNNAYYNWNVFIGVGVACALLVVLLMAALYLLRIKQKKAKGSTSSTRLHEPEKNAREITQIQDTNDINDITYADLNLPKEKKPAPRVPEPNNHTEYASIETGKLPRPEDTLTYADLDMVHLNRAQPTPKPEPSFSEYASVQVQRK

human SIRPα on cells [2] = biological target: T2, human SIRPα on cells (human, UniProt P78324 31-504); test: cell-based or functional assay
[3] = biological target: T3, SIRPγ extracellular domain (human, UniProt Q9P1W8 29-360); test: SPR Biacore T200, antibody on Protein A chip, 1:1 Langmuir fit
T3 construct: also called hSIRPγ - ECD

[4] = biological target: T4, SIRPβ extracellular domain (human, UniProt O00241 30-371); test: as above
T4 construct: also called hSIRPβ - ECD
T4 chain: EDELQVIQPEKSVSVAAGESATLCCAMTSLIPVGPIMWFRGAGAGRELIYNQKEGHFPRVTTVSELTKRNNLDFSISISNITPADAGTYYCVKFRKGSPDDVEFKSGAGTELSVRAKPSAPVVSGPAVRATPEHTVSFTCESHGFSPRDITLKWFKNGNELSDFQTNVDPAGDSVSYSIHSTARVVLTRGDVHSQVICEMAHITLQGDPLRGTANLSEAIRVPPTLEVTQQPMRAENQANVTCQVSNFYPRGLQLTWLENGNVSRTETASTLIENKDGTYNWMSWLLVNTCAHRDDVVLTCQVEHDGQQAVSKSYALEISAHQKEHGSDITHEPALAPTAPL

human SIRPα on cells [5] = biological target: T2, human SIRPα on cells; test: cell-based or functional assay; remark: listed apart in the source
FcγR3A (CD16aV158) = biological target: T5, FcγR3A (CD16aV158) (human, UniProt P08637 17-254); test: cell binding, FcγR-engineered HEK293 cells
T5 construct: whole, on cells

FcγR1 (CD64) = biological target: T6, FcγR1 (CD64) (human, UniProt P12314 16-374); test: cell binding, FcγR-engineered HEK293 cells
T6 construct: whole, on cells

FcγR2B = biological target: T7, FcγR2B (human, UniProt P31994 43-310); test: cell binding, FcγR-engineered HEK293 cells
T7 construct: whole, on cells
T7 sequence (looked up): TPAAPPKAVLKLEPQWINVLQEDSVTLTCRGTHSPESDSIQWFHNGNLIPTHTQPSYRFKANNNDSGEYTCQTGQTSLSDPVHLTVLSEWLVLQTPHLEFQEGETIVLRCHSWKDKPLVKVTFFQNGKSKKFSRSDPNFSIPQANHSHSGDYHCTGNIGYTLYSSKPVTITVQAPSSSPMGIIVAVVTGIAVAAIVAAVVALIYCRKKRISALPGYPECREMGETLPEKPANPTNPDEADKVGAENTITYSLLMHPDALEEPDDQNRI

mouse SIRPα on cells = biological target: T8, mouse SIRPα on cells (mouse, UniProt P97797 32-513); test: flow cytometry on Mouse SIRPα-CHO-K1 cells
T8 construct: whole, on cells; also called mouse SIRPα-CHO-K1; Ms SIRPα-CHO-K1
T8 sequence (looked up): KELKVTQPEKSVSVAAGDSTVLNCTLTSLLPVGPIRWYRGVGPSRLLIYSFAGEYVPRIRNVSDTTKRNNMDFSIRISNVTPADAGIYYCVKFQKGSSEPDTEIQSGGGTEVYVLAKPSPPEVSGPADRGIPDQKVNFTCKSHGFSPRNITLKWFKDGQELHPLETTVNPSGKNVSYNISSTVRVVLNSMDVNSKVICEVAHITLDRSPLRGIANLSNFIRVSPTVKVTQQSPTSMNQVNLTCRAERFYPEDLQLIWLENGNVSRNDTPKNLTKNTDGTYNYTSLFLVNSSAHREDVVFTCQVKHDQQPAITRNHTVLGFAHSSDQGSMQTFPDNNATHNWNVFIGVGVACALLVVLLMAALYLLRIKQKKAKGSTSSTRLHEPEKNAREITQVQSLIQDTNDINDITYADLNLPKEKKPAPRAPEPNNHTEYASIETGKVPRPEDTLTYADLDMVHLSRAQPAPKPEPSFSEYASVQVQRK

human SIRPα on cells [6] = biological target: T2, human SIRPα on cells; test: flow cytometry, human SIRPα-CHO cells, anti-human IgG-AF647 detection

T6 sequence (P12314 16-374): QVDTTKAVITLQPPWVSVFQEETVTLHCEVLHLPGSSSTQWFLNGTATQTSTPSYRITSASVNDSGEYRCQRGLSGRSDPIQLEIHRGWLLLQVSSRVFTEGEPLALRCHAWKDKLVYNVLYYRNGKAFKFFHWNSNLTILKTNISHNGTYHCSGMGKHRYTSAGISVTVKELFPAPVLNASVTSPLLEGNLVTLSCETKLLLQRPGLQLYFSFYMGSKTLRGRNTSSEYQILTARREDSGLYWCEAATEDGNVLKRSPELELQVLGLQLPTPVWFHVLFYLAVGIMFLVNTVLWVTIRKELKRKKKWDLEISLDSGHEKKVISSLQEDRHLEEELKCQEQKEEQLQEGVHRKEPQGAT
T5 sequence (P08637 17-254 F176V): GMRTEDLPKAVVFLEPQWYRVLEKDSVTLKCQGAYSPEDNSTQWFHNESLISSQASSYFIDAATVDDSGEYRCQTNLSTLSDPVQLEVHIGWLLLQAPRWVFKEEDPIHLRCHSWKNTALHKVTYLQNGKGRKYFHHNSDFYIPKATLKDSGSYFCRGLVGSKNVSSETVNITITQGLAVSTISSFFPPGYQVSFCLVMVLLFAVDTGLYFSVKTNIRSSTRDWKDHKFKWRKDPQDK
T3 sequence (Q9P1W8 29-360 limits assumed): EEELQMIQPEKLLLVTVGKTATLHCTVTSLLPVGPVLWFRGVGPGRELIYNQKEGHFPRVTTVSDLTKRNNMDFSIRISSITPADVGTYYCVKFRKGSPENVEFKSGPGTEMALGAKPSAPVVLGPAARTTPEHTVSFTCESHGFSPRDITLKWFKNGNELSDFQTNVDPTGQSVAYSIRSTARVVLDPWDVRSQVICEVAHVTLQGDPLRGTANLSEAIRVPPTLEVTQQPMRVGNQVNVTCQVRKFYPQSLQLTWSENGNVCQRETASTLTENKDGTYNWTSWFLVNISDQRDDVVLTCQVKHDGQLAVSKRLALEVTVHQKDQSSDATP

- binding result [1]: no binding (tested: 100 nM (Log nM 2))
- mean EC50 (n=2 donors) of percent phagocytic macrophages; OCI-LY3; with 0.1 nM rituximab (human SIRPα on cells [2]): 0.11 nM
- Kd [3]: 0.0632 nM
- Kd [4]: 0.38 nM
- EC50 of percent phagocytic macrophages; FaDu; donor 358; 0.2 nM cetuximab (human SIRPα on cells [5]): 0.075 nM
- EC50 of percent phagocytic macrophages; FaDu; donor 358; 1 nM cetuximab (human SIRPα on cells [5]): 0.049 nM
- EC50 of percent phagocytic macrophages; GP2d; donor 338; 0.2 nM cetuximab (human SIRPα on cells [5]): 0.657 nM
- EC50 of percent phagocytic macrophages; GP2d; donor 338; 1 nM cetuximab (human SIRPα on cells [5]): 0.495 nM
- EC50 of percent phagocytic macrophages; GP2d; donor 358; 0.2 nM cetuximab (human SIRPα on cells [5]): 16.2 nM
- EC50 of percent phagocytic macrophages; GP2d; donor 358; 1 nM cetuximab (human SIRPα on cells [5]): 0.247 nM
- EC50 of percent phagocytic macrophages; GP2d; mean; 0.2 nM cetuximab (human SIRPα on cells [5]): 8.43 nM
- EC50 of percent phagocytic macrophages; GP2d; mean; 1 nM cetuximab (human SIRPα on cells [5]): 0.371 nM
- EC50 of percent phagocytic macrophages; GP5d; donor 338; 0.2 nM cetuximab (human SIRPα on cells [5]): 0.543 nM
- EC50 of percent phagocytic macrophages; GP5d; donor 338; 1 nM cetuximab (human SIRPα on cells [5]): 0.714 nM
- EC50 of percent phagocytic macrophages; GP5d; donor 358; 0.2 nM cetuximab (human SIRPα on cells [5]): 0.886 nM
- EC50 of percent phagocytic macrophages; GP5d; donor 358; 1 nM cetuximab (human SIRPα on cells [5]): 0.162 nM
- EC50 of percent phagocytic macrophages; GP5d; mean; 0.2 nM cetuximab (human SIRPα on cells [5]): 0.715 nM
- EC50 of percent phagocytic macrophages; GP5d; mean; 1 nM cetuximab (human SIRPα on cells [5]): 0.438 nM
- EC50 of percent phagocytic macrophages; SW480; donor 338; 0.2 nM cetuximab (human SIRPα on cells [5]): 0.2 nM
- EC50 of percent phagocytic macrophages; SW480; donor 338; 1 nM cetuximab (human SIRPα on cells [5]): 0.461 nM
- EC50 of percent phagocytic macrophages; SW480; donor 358; 0.2 nM cetuximab (human SIRPα on cells [5]): 2.06 nM
- EC50 of percent phagocytic macrophages; SW480; donor 358; 1 nM cetuximab (human SIRPα on cells [5]): 0.102 nM
- EC50 of percent phagocytic macrophages; SW480; mean; 0.2 nM cetuximab (human SIRPα on cells [5]): 1.13 nM
- EC50 of percent phagocytic macrophages; SW480; mean; 1 nM cetuximab (human SIRPα on cells [5]): 0.282 nM
- EC50 (FcγR3A (CD16aV158)): 142 nM
- EC50 (FcγR1 (CD64)): 0.79 nM
- EC50 (FcγR2B): 2710 nM
- binding result (mouse SIRPα on cells): no binding (tested: 100 nM (Log nM 2))
- EC50 (human SIRPα on cells [6]): 2.06 nM
B1: SIRPAB-11-K322A (antibody, human IgG1, kappa)
light: DIQMTQSPSSVSASVGDRVTITCRASQGISSWLAWYQQKPGKAPKLLIYAASNLQSGVPSRFSGSGSGTDFTLTISSLQPEDFATYYCQQGASFPITFGGGTKVEIKRTVAAPSVFIFPPSDEQLKSGTASVVCLLNNFYPREAKVQWKVDNALQSGNSQESVTEQDSKDSTYSLSSTLTLSKADYEKHKVYACEVTHQGLSSPVTKSFNRGEC
heavy: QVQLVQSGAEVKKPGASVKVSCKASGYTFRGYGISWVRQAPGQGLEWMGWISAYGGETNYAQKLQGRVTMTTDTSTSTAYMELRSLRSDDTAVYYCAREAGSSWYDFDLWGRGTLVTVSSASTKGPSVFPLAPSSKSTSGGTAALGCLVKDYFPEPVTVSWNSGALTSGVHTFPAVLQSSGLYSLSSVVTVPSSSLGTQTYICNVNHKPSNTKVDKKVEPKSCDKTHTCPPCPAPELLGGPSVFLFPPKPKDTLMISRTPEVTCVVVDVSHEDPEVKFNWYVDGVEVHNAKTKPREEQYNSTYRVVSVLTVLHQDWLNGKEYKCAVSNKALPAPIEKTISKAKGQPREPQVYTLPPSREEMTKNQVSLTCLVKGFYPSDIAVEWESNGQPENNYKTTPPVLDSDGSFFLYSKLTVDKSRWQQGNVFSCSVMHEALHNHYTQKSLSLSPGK
notes: human IgG1 with K322A (EU numbering); also called SIRPAB-11-IgG1-K322A; SIRPAB-11-K322A-AlexaFluor647
